Reference: IntAct's records for PubMed 15066285

B1: Protein pop-1 (Caenorhabditis elegans), Q10666 (parent)
chain: MMADEELGDEVKVFRRDEDADDDPMISGETSEQQLADDKKEAVMEAELDGAGRNPSIDVLKSAFPKVEPMSPSFPGLMSHFSPGYSAAALPMFMPLFMNPYAAALRSPSLMFPMGAMSPTFPMFPPSPVYGAAIAAAAAKQHFENMAPLNMRAGHPMNQMGMPPYMHPSSMAPQNVDRRAQGGGKAKKDDHVKKPLNAFMWFMKENRKALLEEIGNNEKQSAELNKELGKRWHDLSKEEQAKYFEMAKKDKETHKERYPEWSARENYAVNKKKTKKRRDKSIPSENNDQKKCRARFGVNNTEMWCKFCKRKKKCEYATDRSGGSDITDSQDGRGTSGAYSSSSESPSPKANAGIALTTQQQQAAMMHTMLMQMRLGSTTGASTHVPSPLASSSAGRSPLDANASDSESDVEEEEDEQIDPTVMQQTHDMLMQESMCTI
partner: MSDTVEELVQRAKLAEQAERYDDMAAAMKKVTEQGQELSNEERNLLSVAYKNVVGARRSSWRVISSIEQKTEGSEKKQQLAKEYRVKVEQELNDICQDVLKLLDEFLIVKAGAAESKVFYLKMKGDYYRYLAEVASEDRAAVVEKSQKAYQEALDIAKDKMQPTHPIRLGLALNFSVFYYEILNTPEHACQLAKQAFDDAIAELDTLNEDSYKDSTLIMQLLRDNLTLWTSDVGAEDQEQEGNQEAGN

Variants of: B1
Details: with 14331_caeel par-5, P41932

Row | Variant | effect of a mutation on the interaction
1 | MMADEELGDEVKVFRRDEDADDDPMISGETSEQQLADDKKEAVMEAELDGAGRNPSIDVLKSAFPKVEPMSPSFPGLMSHFSPGYSAAALPMFMPLFMNPYAAALRAPALMFPMGAMAPAFPMFPPAPVYGAAIAAAAAKQHFENMAPLNMRAGHPMNQMGMPPYMHPSSMAPQNVDRRAQGGGKAKKDDHVKKPLNAFMWFMKENRKALLEEIGNNEKQSAELNKELGKRWHDLSKEEQAKYFEMAKKDKETHKERYPEWSARENYAVNKKKTKKRRDKSIPSENNDQKKCRARFGVNNTEMWCKFCKRKKKCEYATDRSGGSDITDSQDGRGTSGAYSSSSESPSPKANAGIALTTQQQQAAMMHTMLMQMRLGSTTGASTHVPSPLASSSAGRSPLDANASDSESDVEEEEDEQIDPTVMQQTHDMLMQESMCTI [S107A;S109A;S118A;T120A;S127A] | disrupting interaction
